Experimental data published in patent publication US20220177594A1 (ZOETIS SERVICES, published 2022).

Biological target: T1, ANTIBODY EXPRESSION CONTROL
T1 construct: also called mouse anti-canine antibody (capture reagent of the expression control ELISA)
Assay: SPR Biacore, expression control
Procedure: The affinity with which candidate mAbs bind canine, feline, and human (SEQ ID NO: 122; Human_OSMR) (R&D Systems, Minneapolis, Minn.) OSMR was determined using surface plasmon resonance (SPR) on a Biacore system (Biacore Life Sciences (GE Healthcare), Uppsala, Sweden). To avoid affinity differences associated with differential surface preparation that can occur when immobilizing antibodies to surfaces; OSMR from each species was directly conjugated to individual surfaces. Immobilization was obtained by amine coupling 5 μg/mL OSMR using N-hydroxysuccinimide (NHS)/1-Ethyl-3-(3-dimethylaminopropyl) carbodiimide (EDC) chemistry. Chips were quenched with ethanolamine and the affinity with which all candidate mAbs bound to the immobilized OSMR was evaluated. All curves were fit to a 1:1 model. […] Results for affinity measurements are described herein.
Data from an ELISA represents an equilibrium state where the antibody is allowed to associate and dissociate over a one-hour period resulting in steady-state binding. Using Biacore, the target protein is immobilized to a surface and the antibody is passed over this surface in a mobile liquid phase. Protein-protein interaction is determined from changes in the surface resonance which allows for calculation of association (kₐ), disassociation (kd), and affinity constant (KD). While not wishing to be bound to one hypothesis we present data from ELISA and Biacore experiments, using the same preparation of antibody, that may result in agreement between the two methods with respect to binding but also may show contradictory results due to the nature of the binding kinetics and different assay dynamics. The data presented in Table A (in combination with experimental results from yeast display mutational analysis in Example 21) allow for the definition of a structure:function relationship to be defined between the anti-OSMR antibodies described here and their ability to bind and block IL-31 and OSM-mediated signaling through the OSMR receptor.

Row | Binder | Kd [pM] | koff [s⁻¹] | kon [M⁻¹ s⁻¹]
1 | Mu_02D09_VH (SEQ ID NO: 31)_D31A (antibody, V domains shown) VH: EVQLVESGGGLVKPGGSLTLSCAASGFTFSAYGMHWLRQAPEKGLEWVAYISSGSRAVFFADTVKGRFTISRDNAKNTLFLQMTSLRSDDTAMYYCARDRYDGRGFAYWGQGTLVTVSA VL: DIVLTQSPATLSVTPGDSVSLSCRASQSISNNLHWYQQTSHESPRLLITYASQSISGIPSRFSGSGSGTDFTLSINSVETEDFGMYFCQQSNSWPLTFGAGTKLELKR | 68.5 | 8.32e-05 | 1.21e+06
2 | Mu_02D09_VH (SEQ ID NO: 31)_S52A (antibody, V domains shown) VH: EVQLVESGGGLVKPGGSLTLSCAASGFTFSDYGMHWLRQAPEKGLEWVAYIASGSRAVFFADTVKGRFTISRDNAKNTLFLQMTSLRSDDTAMYYCARDRYDGRGFAYWGQGTLVTVSA VL: DIVLTQSPATLSVTPGDSVSLSCRASQSISNNLHWYQQTSHESPRLLITYASQSISGIPSRFSGSGSGTDFTLSINSVETEDFGMYFCQQSNSWPLTFGAGTKLELKR | 23.3 | 7.55e-06 | 323000
3 | Mu_02D09_VH (SEQ ID NO: 31)_R104A (antibody, V domains shown) VH: EVQLVESGGGLVKPGGSLTLSCAASGFTFSDYGMHWLRQAPEKGLEWVAYISSGSRAVFFADTVKGRFTISRDNAKNTLFLQMTSLRSDDTAMYYCARDRYDGAGFAYWGQGTLVTVSA VL: DIVLTQSPATLSVTPGDSVSLSCRASQSISNNLHWYQQTSHESPRLLITYASQSISGIPSRFSGSGSGTDFTLSINSVETEDFGMYFCQQSNSWPLTFGAGTKLELKR | 229 | 2.41e-05 | 105000
4 | Mu_02D09_VH (SEQ ID NO: 31)_G33A (antibody, V domains shown) VH: EVQLVESGGGLVKPGGSLTLSCAASGFTFSDYAMHWLRQAPEKGLEWVAYISSGSRAVFFADTVKGRFTISRDNAKNTLFLQMTSLRSDDTAMYYCARDRYDGRGFAYWGQGTLVTVSA VL: DIVLTQSPATLSVTPGDSVSLSCRASQSISNNLHWYQQTSHESPRLLITYASQSISGIPSRFSGSGSGTDFTLSINSVETEDFGMYFCQQSNSWPLTFGAGTKLELKR | 22.5 | 7.35e-06 | 327000
5 | Mu_02D09_VH (SEQ ID NO: 31)_Y32A (antibody, V domains shown) VH: EVQLVESGGGLVKPGGSLTLSCAASGFTFSDAGMHWLRQAPEKGLEWVAYISSGSRAVFFADTVKGRFTISRDNAKNTLFLQMTSLRSDDTAMYYCARDRYDGRGFAYWGQGTLVTVSA VL: DIVLTQSPATLSVTPGDSVSLSCRASQSISNNLHWYQQTSHESPRLLITYASQSISGIPSRFSGSGSGTDFTLSINSVETEDFGMYFCQQSNSWPLTFGAGTKLELKR | 366 | 4.43e-05 | 121000
6 | Mu_02D09_VH (SEQ ID NO: 31)_D102A (antibody, V domains shown) VH: EVQLVESGGGLVKPGGSLTLSCAASGFTFSDYGMHWLRQAPEKGLEWVAYISSGSRAVFFADTVKGRFTISRDNAKNTLFLQMTSLRSDDTAMYYCARDRYAGRGFAYWGQGTLVTVSA VL: DIVLTQSPATLSVTPGDSVSLSCRASQSISNNLHWYQQTSHESPRLLITYASQSISGIPSRFSGSGSGTDFTLSINSVETEDFGMYFCQQSNSWPLTFGAGTKLELKR | 547 | 7.4e-05 | 135000
7 | Mu_02D09_VH (SEQ ID NO: 31)_H35A (antibody, V domains shown) VH: EVQLVESGGGLVKPGGSLTLSCAASGFTFSDYGMAWLRQAPEKGLEWVAYISSGSRAVFFADTVKGRFTISRDNAKNTLFLQMTSLRSDDTAMYYCARDRYDGRGFAYWGQGTLVTVSA VL: DIVLTQSPATLSVTPGDSVSLSCRASQSISNNLHWYQQTSHESPRLLITYASQSISGIPSRFSGSGSGTDFTLSINSVETEDFGMYFCQQSNSWPLTFGAGTKLELKR | 803 | 0.000112 | 139000
8 | Mu_02D09_VH (SEQ ID NO: 31)_Y101A (antibody, V domains shown) VH: EVQLVESGGGLVKPGGSLTLSCAASGFTFSDYGMHWLRQAPEKGLEWVAYISSGSRAVFFADTVKGRFTISRDNAKNTLFLQMTSLRSDDTAMYYCARDRADGRGFAYWGQGTLVTVSA VL: DIVLTQSPATLSVTPGDSVSLSCRASQSISNNLHWYQQTSHESPRLLITYASQSISGIPSRFSGSGSGTDFTLSINSVETEDFGMYFCQQSNSWPLTFGAGTKLELKR | 280 | 4.11e-05 | 147000
9 | Mu_02D09_VH (SEQ ID NO: 31)_D62A (antibody, V domains shown) VH: EVQLVESGGGLVKPGGSLTLSCAASGFTFSDYGMHWLRQAPEKGLEWVAYISSGSRAVFFAATVKGRFTISRDNAKNTLFLQMTSLRSDDTAMYYCARDRYDGRGFAYWGQGTLVTVSA VL: DIVLTQSPATLSVTPGDSVSLSCRASQSISNNLHWYQQTSHESPRLLITYASQSISGIPSRFSGSGSGTDFTLSINSVETEDFGMYFCQQSNSWPLTFGAGTKLELKR | 1.9 | 2.45e-07 | 129000
10 | Mu_02D09_VH (SEQ ID NO: 31)_D99A (antibody, V domains shown) VH: EVQLVESGGGLVKPGGSLTLSCAASGFTFSDYGMHWLRQAPEKGLEWVAYISSGSRAVFFADTVKGRFTISRDNAKNTLFLQMTSLRSDDTAMYYCARARYDGRGFAYWGQGTLVTVSA VL: DIVLTQSPATLSVTPGDSVSLSCRASQSISNNLHWYQQTSHESPRLLITYASQSISGIPSRFSGSGSGTDFTLSINSVETEDFGMYFCQQSNSWPLTFGAGTKLELKR | 1630 | 0.000384 | 235000
11 | Mu_02D09_VH (SEQ ID NO: 31)_Y50A (antibody, V domains shown) VH: EVQLVESGGGLVKPGGSLTLSCAASGFTFSDYGMHWLRQAPEKGLEWVAAISSGSRAVFFADTVKGRFTISRDNAKNTLFLQMTSLRSDDTAMYYCARDRYDGRGFAYWGQGTLVTVSA VL: DIVLTQSPATLSVTPGDSVSLSCRASQSISNNLHWYQQTSHESPRLLITYASQSISGIPSRFSGSGSGTDFTLSINSVETEDFGMYFCQQSNSWPLTFGAGTKLELKR | 2.59 | 3.68e-07 | 142000

Continued, values first:

Row | Kd [pM] | koff [s⁻¹] | kon [M⁻¹ s⁻¹] | Binder
12 | 180 | 5.34e-05 | 297000 | Mu_09E09_VH (SEQ ID NO: 35)_S35A (antibody, V domains shown) VH: DVKLVESGEGLVKPGGSLKLSCAASGFTFSSYAMAWVRQTPEKRLEWVAYISSGGDYIYYADTVKGRFTISRDNARNTLYLQMSSLKSEDTAMYYCTRDPITGTFAYWGQGTLVTVSA VL: DLQMTQTTSSLSASLGDRVTISCRASQDINNYLNWYQQKPDGTVKLLIYYTSTLHSGVPSRFSGSGSGTDYSLTISNLEQEDIATYFCQQGNTLPWTFGGGTKLEIKR
13 | 179 | 5.4e-05 | 301000 | Mu_09E09_VH (SEQ ID NO: 35)_Y50A (antibody, V domains shown) VH: DVKLVESGEGLVKPGGSLKLSCAASGFTFSSYAMSWVRQTPEKRLEWVAAISSGGDYIYYADTVKGRFTISRDNARNTLYLQMSSLKSEDTAMYYCTRDPITGTFAYWGQGTLVTVSA VL: DLQMTQTTSSLSASLGDRVTISCRASQDINNYLNWYQQKPDGTVKLLIYYTSTLHSGVPSRFSGSGSGTDYSLTISNLEQEDIATYFCQQGNTLPWTFGGGTKLEIKR
14 | 714 | 9.47e-05 | 133000 | Mu_02D09_VL (SEQ ID NO: 33)_I29A (antibody, V domains shown) VH: EVQLVESGGGLVKPGGSLTLSCAASGFTFSDYGMHWLRQAPEKGLEWVAYISSGSRAVFFADTVKGRFTISRDNAKNTLFLQMTSLRSDDTAMYYCARDRYDGRGFAYWGQGTLVTVSA VL: DIVLTQSPATLSVTPGDSVSLSCRASQSASNNLHWYQQTSHESPRLLITYASQSISGIPSRFSGSGSGTDFTLSINSVETEDFGMYFCQQSNSWPLTFGAGTKLELKR
15 | 65.9 | 2.43e-05 | 370000 | Mu_02D09_VL (SEQ ID NO: 33)_L96A (antibody, V domains shown) VH: EVQLVESGGGLVKPGGSLTLSCAASGFTFSDYGMHWLRQAPEKGLEWVAYISSGSRAVFFADTVKGRFTISRDNAKNTLFLQMTSLRSDDTAMYYCARDRYDGRGFAYWGQGTLVTVSA VL: DIVLTQSPATLSVTPGDSVSLSCRASQSISNNLHWYQQTSHESPRLLITYASQSISGIPSRFSGSGSGTDFTLSINSVETEDFGMYFCQQSNSWPATFGAGTKLELKR
16 | 97.7 | 3.16e-05 | 323000 | Mu_02D09_VL (SEQ ID NO: 33)_W94A (antibody, V domains shown) VH: EVQLVESGGGLVKPGGSLTLSCAASGFTFSDYGMHWLRQAPEKGLEWVAYISSGSRAVFFADTVKGRFTISRDNAKNTLFLQMTSLRSDDTAMYYCARDRYDGRGFAYWGQGTLVTVSA VL: DIVLTQSPATLSVTPGDSVSLSCRASQSISNNLHWYQQTSHESPRLLITYASQSISGIPSRFSGSGSGTDFTLSINSVETEDFGMYFCQQSNSAPLTFGAGTKLELKR
17 | 844 | 0.000111 | 132000 | Mu_02D09_VL (SEQ ID NO: 33)_S56A (antibody, V domains shown) VH: EVQLVESGGGLVKPGGSLTLSCAASGFTFSDYGMHWLRQAPEKGLEWVAYISSGSRAVFFADTVKGRFTISRDNAKNTLFLQMTSLRSDDTAMYYCARDRYDGRGFAYWGQGTLVTVSA VL: DIVLTQSPATLSVTPGDSVSLSCRASQSISNNLHWYQQTSHESPRLLITYASQSIAGIPSRFSGSGSGTDFTLSINSVETEDFGMYFCQQSNSWPLTFGAGTKLELKR
18 | 1200 | 0.00019 | 158000 | Mu_02D09_VL (SEQ ID NO: 33)_Q27A (antibody, V domains shown) VH: EVQLVESGGGLVKPGGSLTLSCAASGFTFSDYGMHWLRQAPEKGLEWVAYISSGSRAVFFADTVKGRFTISRDNAKNTLFLQMTSLRSDDTAMYYCARDRYDGRGFAYWGQGTLVTVSA VL: DIVLTQSPATLSVTPGDSVSLSCRASASISNNLHWYQQTSHESPRLLITYASQSISGIPSRFSGSGSGTDFTLSINSVETEDFGMYFCQQSNSWPLTFGAGTKLELKR
